Substitutions are numbered along the chain they refer to. Numbers in names are those of the source.
T1: HbA1c-type αF8P (α-fructosyl-valyl-histidyl-leucyl-threonyl-prolyl-glutamyl-glutamyl-lysine)
T1 chain: VHLTPEEK

T2: HbC1c-type αF8P
T2 chain: VHLTPKEK

T3: HbS1c-type αF8P
T3 chain: VHLTPVEK

B1: CFP-T7-H40-3M (protein)
chain: MTSNRADTRVIVVGGGGTIGSSTALHLVRSGYAPANITVLDTFEIPSAQSAGHDLNKIMGIDHGNKVNLQMSLEARQMWKEDELFQPFFHNTGRMDCESTPKGIEKLKKYYQKLHDAGAGLEKTHAWLDNEDEILSKMPLLQRDQIQGWKAIWSQDGGWLAAAKAINAIGQFLKERGVKFGFGGAGSFKQPLFDDEGTTCIGVETADGTKYYADKVVLAAGAWSPTLVDLEDQCCSKAWVYAHIQLTPEEAAEYKGVPVVYNSEYGFFFEPDEFGVIKVCNEFPGFSRFKEHQPYGAPSPKRISVPRSHAKHPTDTYPDASEVSIKKAIATFLPRFQDKELFNRALCWCTDTADSTLLMCEHPKWKNFILATGDSGHSFKILPNVGKYVVELIEGRLPEEMAYQWRWRPGGDALKSRRAAPPKDLADMPGWKHDPKL
B2: CFP-T7-H40-3M K102E (protein)
chain: B1 chain with K102E
B3: CFP-T7-H40-3M K102A (protein)
chain: B1 chain with K102A
B4: CFP-T7-H40-3M K106D (protein)
chain: B1 chain with K106D
B5: CFP-T7-H40-3M K113T (protein)
chain: B1 chain with K113T
B6: CFP-T7-H40-3M K113E (protein)
chain: B1 chain with K113E
B7: CFP-T7-H40-3M K113S (protein)
chain: B1 chain with K113S
B8: CFP-T7-H40-3M K113A (protein)
chain: B1 chain with K113A
B9: CFP-T7-H40-3M K106A (protein)
chain: B1 chain with K106A
B10: En42FX R108L (protein)
chain: MAPRANTKIIVVGGGGTMGSSTALHLLRAGYTPSNITVLDTYPIPSAQSAGYDLNKIFGISGANKHDLQLSLEAFDMWKNDPLFKPFFHNVGQMDVSSTEEGIKRLRLRYQSLLRAGIGLEKTNFLLESEDEILAKAPHFTREQIKGWKGLFCGDGGWLAAAKAINAIGQFLKEQGVKFGFGEAGTFKKPLFADADEKTCIGVETVDGTKYYADKVVLAAGAWSSTLVDLEEQCVSKAWVFAHIQLTPAEAAAYKNTPVIYDGDYGFFIEPDENGIIKVCDEFPGFTHFKMHQPYGSPVPKLISVPRSHAKHPTDTYPHASEVTIKKAINRFLPRFNDKELFNRAMCWCTDTADSNLLVCEHPRWKGFYLATGDSGHSFKLLPNIGKHVVELLEGRLESVFKDAWRWRPGSGDALKSRRAAPAKDLADMPGWRNEAKM
B11: En42FX R108Q (protein)
chain: B10 chain with L108Q
B12: En42FX S112E (protein)
chain: B10 chain with L108R, S112E
B13: En42FX R105D (protein)
chain: B10 chain with R105D, L108R
B14: En42FX S112D (protein)
chain: B10 chain with L108R, S112D
B15: En42FX R108D (protein)
chain: B10 chain with L108D
B16: En42FX R108E (protein)
chain: B10 chain with L108E
B17: En42FX R105S (protein)
chain: B10 chain with R105S, L108R
B18: En42FX R105L (protein)
chain: B10 chain with R105L, L108R

Target: T1, HbA1c-type αF8P …
B1 gave a relative activity on substrate (reference, designated as 100%) of 100%.
B2 showed a relative activity on substrate (reference, designated as 100%) of 100%.
Protein B3 has a relative activity on substrate (reference, designated as 100%) of 100%.
B4 was tested, and the relative activity on substrate (reference, designated as 100%) was 100% and the “specific activity on substrate” value was “at least 20 mU/mg”.
For B5, the relative activity on substrate (reference, designated as 100%) was 100% and the “specific activity on substrate” value was “at least 20 mU/mg”.
With B6 the relative activity on substrate (reference, designated as 100%) was 100% and the “specific activity on substrate” value was “at least 20 mU/mg”.
For B7, the relative activity on substrate (reference, designated as 100%) was 100% and the “specific activity on substrate” value was “at least 20 mU/mg”.
With B8 the relative activity on substrate (reference, designated as 100%) was 100% and the “specific activity on substrate” value was “at least 20 mU/mg”.
B9 was tested, and the relative activity on substrate (reference, designated as 100%) was 100% and the “specific activity on substrate” value was “at least 20 mU/mg”.
With B10 the relative activity on substrate (reference, designated as 100%) was 100%.
B11 was tested, and the relative activity on substrate (reference, designated as 100%) was 100%.
B12 was tested, and the relative activity on substrate (reference, designated as 100%) was 100%.
Protein B13 has a relative activity on substrate (reference, designated as 100%) of 100%.
In the case of B14, the relative activity on substrate (reference, designated as 100%) is reported as 100%.
With B15 the relative activity on substrate (reference, designated as 100%) was 100%.
B16 gave a relative activity on substrate (reference, designated as 100%) of 100%.
For B17, the relative activity on substrate (reference, designated as 100%) was 100%.
B18 was tested, and the relative activity on substrate (reference, designated as 100%) was 100%.

Target: T2, HbC1c-type αF8P
Work on B1 yielded a relative activity on substrate (activity on HbA1c-type αF8P = 100%) of 11%.
With B4 the relative activity on substrate (activity on HbA1c-type αF8P = 100%) was 48% and the “specific activity on substrate” value was “at least 20 mU/mg”.
In the case of B5, the relative activity on substrate (activity on HbA1c-type αF8P = 100%) is reported as 40% and the “specific activity on substrate” value is reported as “at least 20 mU/mg”.
With B6 the relative activity on substrate (activity on HbA1c-type αF8P = 100%) was 91% and the “specific activity on substrate” value was “at least 20 mU/mg”.
For B7, the “relative activity (HbC1c/HbA1c), fold over H40-3M before modification” value was “improved by about 2.8 to 9.4 times”, the relative activity on substrate (activity on HbA1c-type αF8P = 100%) was 103% and the “specific activity on substrate” value was “at least 20 mU/mg”.
For B8, the relative activity on substrate (activity on HbA1c-type αF8P = 100%) was 38% and the “specific activity on substrate” value was “at least 20 mU/mg”.
With B9 the “relative activity (HbC1c/HbA1c), fold over H40-3M before modification” value was “improved by about 2.8 to 9.4 times”, the relative activity on substrate (activity on HbA1c-type αF8P = 100%) was 31% and the “specific activity on substrate” value was “at least 20 mU/mg”.
In the case of B10, the relative activity on substrate (activity on HbA1c-type αF8P = 100%) is reported as 13%.
B11 gave a relative activity on substrate (activity on HbA1c-type αF8P = 100%) of 15%.
In the case of B12, the relative activity on substrate (activity on HbA1c-type αF8P = 100%) is reported as 41%.
With B13 the “relative activity (HbC1c/HbA1c), fold over En42FX before modification” value was “improved by about 1.1 to 10.8 times” and the relative activity on substrate (activity on HbA1c-type αF8P = 100%) was 86%.
In the case of B14, the relative activity on substrate (activity on HbA1c-type αF8P = 100%) is reported as 16%.
For B15, the relative activity on substrate (activity on HbA1c-type αF8P = 100%) was 23%.
For B16, the relative activity on substrate (activity on HbA1c-type αF8P = 100%) was 31%.
B17 was tested, and the relative activity on substrate (activity on HbA1c-type αF8P = 100%) was 13%.
In the case of B18, the “relative activity (HbC1c/HbA1c), fold over En42FX before modification” value is reported as “improved by about 1.1 to 10.8 times” and the relative activity on substrate (activity on HbA1c-type αF8P = 100%) is reported as 9%.

Target: T3, HbS1c-type αF8P
B1 was tested, and the relative activity on substrate (activity on HbA1c-type αF8P = 100%) was 39%.
B2 was tested, and the “relative activity (HbS1c/HbA1c), fold over H40-3M before modification” value was “about 1.74 times greater than that prior to modification” and the relative activity on substrate (activity on HbA1c-type αF8P = 100%) was 68%.
B3 was tested, and the “relative activity (HbS1c/HbA1c), fold over H40-3M before modification” value was “about 1.97 times greater than that prior to modification” and the relative activity on substrate (activity on HbA1c-type αF8P = 100%) was 77%.
For B4, the relative activity on substrate (activity on HbA1c-type αF8P = 100%) was 83% and the “specific activity on substrate” value was “at least 20 mU/mg”.
For B5, the relative activity on substrate (activity on HbA1c-type αF8P = 100%) was 104% and the “specific activity on substrate” value was “at least 20 mU/mg”.
B6 was tested, and the relative activity on substrate (activity on HbA1c-type αF8P = 100%) was 97% and the “specific activity on substrate” value was “at least 20 mU/mg”.
In the case of B7, the “relative activity (HbS1c/HbA1c), fold over H40-3M before modification” value is reported as “improved by about 2.1 to 3.3 times”, the relative activity on substrate (activity on HbA1c-type αF8P = 100%) is reported as 130% and the “specific activity on substrate” value is reported as “at least 20 mU/mg”.
B8 was tested, and the relative activity on substrate (activity on HbA1c-type αF8P = 100%) was 104% and the “specific activity on substrate” value was “at least 20 mU/mg”.
With B9 the “relative activity (HbS1c/HbA1c), fold over H40-3M before modification” value was “improved by about 2.1 to 3.3 times”, the relative activity on substrate (activity on HbA1c-type αF8P = 100%) was 81% and the “specific activity on substrate” value was “at least 20 mU/mg”.
B10 was tested, and the “relative activity (HbS1c/HbA1c), fold over En42FX before modification” value was “improved by about 1.4 to 3.7 times” and the relative activity on substrate (activity on HbA1c-type αF8P = 100%) was 150%.
Protein B11 has a relative activity on substrate (activity on HbA1c-type αF8P = 100%) of 67%.
Protein B12 has a relative activity on substrate (activity on HbA1c-type αF8P = 100%) of 82%.
Work on B13 yielded a relative activity on substrate (activity on HbA1c-type αF8P = 100%) of 114%.
Protein B14 has a relative activity on substrate (activity on HbA1c-type αF8P = 100%) of 63%.
In the case of B15, the relative activity on substrate (activity on HbA1c-type αF8P = 100%) is reported as 95%.
B16 gave a relative activity on substrate (activity on HbA1c-type αF8P = 100%) of 100%.
With B17 the “relative activity (HbS1c/HbA1c), fold over En42FX before modification” value was “improved by about 1.4 to 3.7 times” and the relative activity on substrate (activity on HbA1c-type αF8P = 100%) was 56%.
For B18, the relative activity on substrate (activity on HbA1c-type αF8P = 100%) was 64%.

Reference: patent US20200283741
